Measurements from the DeepSol protein solubility set.

Test: soluble on expression in E. coli; label from the status in PepcDB or PDB records

Sequence | soluble on expression in E. coli
MGSDKIHHHHHHMFYIMPAWENEVSELNRDLLKNLTNVFVGGKKSVKLAVLNFLPNLRYLLHVNGLTNYEYWNIWDAILGIERVDGMPLGPEALDLPQGVRLINAMTSMDAYEGSKLYARIIRSSEGYLSEVQFMNPQNRHTDVYDDRGFKVCTNYYENEEVVRQEWFNECNQLIVRYEPKAKVAVQILGNYSNFEKRQYKTLNELLMEFVNSFFEEHFDPTQDRLIASTNLKIRPLMVEIQNRLPVTYLLDHLGPMDTTTVETLQPQIQGAFKFVVPNYVIFQQIKSSVAEPAQKVLKLGYPYGTENRLGNSNEESKMFIYWHIDESTNDTTCSQFAEKLIDYSLEHENVGLQVAALNDRQANLVFNYLCQALKNKYTFLDLEQDQDLIWKIVFGREDTDAIGKLLMQLKFRLGMNLKHDPETNPQKLADSARFKKINWKKVMEDITETIIRVNSRDNEIYRNLARSRVLVDVGSPYNTRMQFNAISAGIPQIVNVDSPFIINRKNGWIINEKQSLSQGLDFYLQELGNWNKSLVATTKYMEQLTLKRQADWWERRTKYEK | not soluble
GEKVDFDDIQKKRQNKDLIELQALIDSHFEARRKEEEELVALKERIEKRRAERAE | soluble
MSLRVLFLRPDNEDNELNEKLMILRKNGIEVLNIPIFKIKCVSYSLPTYDYEALAFTSRNSVICFKDRTLIKNVHKIYAIGEETAELLMKMYNVNPITPERFTSIELAKRILEDKVNSILSIRSRKASEDMRNILNGKIKYDEIYVYDSEIIRDNINEISKILTECEVDAIAFTSSLMAKLIGPFIRGKCNIIIFSIGPMTTETLKRVNNKVKIIESKTHSIKGIIETILVEMKRNGRDEGHHHHHH | soluble
MTTKEITLDENGFATEAGFITVYNYSGETREYISTSTEYLAVGVGIPACSCLDAPVTHKAGYAICRSADFNSWEYVPDHRGEIVFSTETGESKEITAPGDYPDNTTTIAPLTPYDKWDGEKWVTDTEAQHSAAVDAAEAQRQSLIDTAMASISLIQLKLQAGRKLTQAETTRLNAVLDYIDAVTATDTSTAPDVIWPELPEA | not soluble
STAGKVIKCKAAVLWELKKPFSIEEVEVAPPKAHEVRIKMVAAGICRSDEHVVSGNLVTPLPVILGHEAAGIVESVGEGVTTVKPGDKVIPLFTPQCGKCRICKNPESNYCLKNDLGNPRGTLQDGTRRFTCSGKPIHHFVGVSTFSQYTVVDENAVAKIDAASPLEKVCLIGCGFSTGYGSAVKVAKVTPGSTCAVFGLGGVGLSVVMGCKAAGAARIIAVDINKDKFAKAKELGATECINPQDYKKPIQEVLKEMTDGGVDFSFEVIGQLDTMMASLLCCHEACGTSVIVGVPPDSQNLSINPMLLLTGRTWKGAIFGGFKSKESVPKLVADFMAKKFSLDALITNVLPFEKINEGFDLLRSGKSIRTVLTF | soluble
MKLPGPDHPISITANPNGVRISADGKVIAETRRALTLQEASYPPVQYIPREDADMRLLEKTARVTHCPYKGDASYFSIVAGGEPQANAVWSYENPFPAMAEIAGYLAFYPQKVQTEEFKP | not soluble
MGSDKIHHHHHHMDYRMCWLEYRGLPADVAGKLKDWFSSVSILEPGSSVLKDEIRRFSERSIGITPRFYSRPLKKEKYIMVGRLESLPIKLDVNLGEEGFMLRTIEWNGSKILLVTGETKKALVYGIFDLMKRIRLGEDIEKMNVLAKPKAKFRMLNHWDNLDGTIERGYAGNSIFFKDNRIIINQRTKDYARLLASIGINGVVINNVNVKKREVYLIDSIYLKKLKKLADIFREYGIKIYLSINFASPVYLGGLDTADPLDERVARWWREKARGIYDYIPDFGGFLVKADSEFNPGPHMFGRTHAEGANMLARALAPFGGVVIWRAFVYNCLQDWRDYKTDRAKAAYDNFKPLDGQFDDNVIIQIKYGPMDFQVREPVNPLFGGMEKTNQILELQITQEYTGQQIHLCFLGTLWKEILEFDTFAKGEGSYVKRIVDGTLFDRENNGFAGVSNVGDSVNWTGHDLAQANLYAFGRLAWNPDEEIERIVEEWIKLTFGDDEKVLENVSYMLMKSHRTYEKYTTPFGLGWMVNPGHHYGPNPEGYEYSKWGTYHRANWEAIGVDRTSRGTGYTLQYHSPWKEIYDDINTCPEDLLLFFHRVRYDHRLKSGKTLLQTMYDLHFEGVEEVEEFIKKWEELKDRVSPDIFERVKERLHMQLEHAKEWRDVINTYFYRRTGIPDEKGRKIYP | not soluble
LINQAEVDIYDIPVALITEQYMAYIHTMQELQLDVASEYLVMAATLLQIKSKMLLPKQEEIFDETFEYEEEDPREELMFRLIEYRRYKEAAQELKEKEGERSQVHTRLPDNLDDYLTEEERQRQSIQGVTLFDMLAAYQKLLKRRAYSRPRTSTVKVEEYSIDERMTDILMDLEKCNGKCRFQDLFV | not soluble
MDQKREALVGPITSSPASILELSIFYEFLKAQWCAFTIGSSEPPISPRQLNLLSLLIGPSNSDQEIPRDTVAVSWVYVGFEFGESCEQFGATDEQLRGHFEYQMICTNVQCIYFVEDGKKRRMAGVTWYLRNDEKSKNHEDYNMIAIYETIREKRFEEVQKIRKLEKEEALRRGGWLGEPTDEYTSTIFSHLKLLTLKDGRLAVFACNADGEEEKFAFNERTERYEVLEDVVEVEDRPSNYLLRII | not soluble
MGSDKIHHHHHHMAKTIKLILSDIDGTILDNNHQVDAHLRDTITELKKESIPFVLASARSPHGMFPIAQELNLGANPIACYNGALIVEGNKEHYQTLIEHGLSKADVKKIVALIKKQFPHISINFYSGGDWIVEEIDQWVQIEADITKESPDIRNFDTLLTDDAIPIHKLLLIANAQAIQEFFTYLKRVNFEDASFYLSKDNYLEVTSQSVSKENALLEIAKYYDISLSQTMAIGDNYNDIPMLKLAGLGVAMANAPQAVKNEADIETVSNNDNGVSKVIEDYVLI | not soluble
MSLGSGHIRAAEALQKFVVQKYPKSKTLIVDTFKYINPLIHTVVVDGYLNIVKYVPEIYGGLYRMSEHIKNIDRMSRGFSNLLTPKIHRLIQSFKPSIIVCTHPFPLQMIAHLKKHYNLDVPSIAIVTDFVNHPFWFQNNIEAYIVAHDYIKRDMIECGISEDRIFTYGLPVAPEFLKLEHHHHHH | not soluble
MATQRAHRAETPAHPNRLWIWEKHVYLDEFRRSWLPVVIKSNEKFQVILRQEDVTLGEAMSPSQLVPYELPLMWQLYPKDRYRSADSMYWQILYHIKFRDVEDMLLELIDSESNDE | soluble
MSLGYRVGNSDSTSLLSAFAPPERAKKKSKEKRPLQAARFLSLLYPKTDPHSAVQDPSLVHEEHQTRLAYLQDRLCSTGDILKNTRTLETIAAYKQAVKEFVQYAIKHNYTTESKSSIRIDRGTGMPDTVIFTKIKVIDQKLASFVRELMSHQVDQLTVLQKTEEIYGMLVDLLIEGHHHHHH | soluble
MKFPFHPWRRLLLCALPFAALLTACDDGKKEPPPKPAEVTTYNSVPWDALPATSDADLLAGFNAWRSACARLAKDPVWGEPCASATTVAADPTAVRAFLQERMQVYSLRSSSNGDQGLITGYYEPVYHGSLSQGEKTPVPVYGVPDDLVVVALESVYPELKGKRLRGRLEGRVLKPYDDAATIRDNGSSAPVLAWLGDPMDLQFLQIQGSGRIQLEDGRQLRIGYGDQNGHPYKPVGRWLVEQGLVPKEEISMKRIRDWAEANPQRVSELLASNPSFVFFSLRPDSDEGPRGSLNVPLTDGYSVAIDRKVIPLGSLMWLSTTRPDDGSAVVRPVAAQDTGGAIVGEVRADLFWGTGDAAGELAGHMKQPGRLWLLWPKGAPLPAS | not soluble
MGSDKIHHHHHHMSDAKLQSVLSSLSQVARQLDALPSDTPAPDSSWVKLNTNENPFPLPEIIMQSAIAALERQYLYPEDDNISLREAAANAYSVSMDQVIAGNGSSELLGLVYRAFLTPGDSVAMMSPGFSFNRKLATLQGAQFVEIEFSKDHSLPMEQLLFGPAKDAKFILLANPNNPTGTFVPVADIERLVAKSDRLIVLDEAYVDFAPENGLRLINRYSNLLVLRTFSKSYAAAGVRVGFGFGHPEIIGRLRNIQNVFNMNVIGQAVGISVLAHRAAYADNHRHIRHERRRVTLALSQLGFSVIPSHANFLLARVPTAQDGSWWQSAFARQKILVAVFPDKGLENYIRVSIGTKEQMDAFLRAASRISRILNMSTPPR | not soluble
MSLEKQFFHPDRVKYDKDCFTIEGKDIFILSAAFHYFRCPQELWRDRFRKIKEAGFNTVETYVPWNWHERNMPKSVDDYSQCNFDDLKAWLHMAHEEFGLYTIVRPGPFICAEWAGGAYPRWLAKFCPDSYDTSFWLRSNHPEHMKWSEHWYNAVCRVFSEEQLTRKQPGEKGIIMVQLENEYIYFDMESEKKEEFLRVLSDACIRNGIDVPLFTCVTPEVRGSHDPVISQLFDMDNQYVWWNMHEAKSRIEKLKAEQPNAPAFVCELQGGWFSTVGGRLSEDSYLDGRHARGMALMAMAGGSTGLNYYMFFGGTHFAGWGARRMTTTYDYGAPLKENGGVGEKYAAVKGIGEVVDKFGGLLVRSRPVRFDVQGADNLTIGIRRAADGTLFVFLLNRDKKQAFRQLVNLTVEGKPMRIDCQLAALDSKLLVVHAGTDTVEWYPREQTLPEREGHHHHHH | soluble
MGSDKIHHHHHHMDVTMGYFTIPKGPGDSTDARWYNAPGGRSIFLRPDNKGTTRAVLTLQAPIREAPESAQEQKRWLKERFADAGWEAPRVLDGLEDATDLYFDLLRQVRMKRWHKGRIALTGDAAWCATPLSGIGTTLAIVGAYVLAGELSKTHDIAQAFKCYENIMRPFVEKGQNVPKFGPRLMHPHSRLGVSFQRSALRFVSKPGIQKVLTKVAMPAADKVDLPDYQYHASS | not soluble
IADVVPLDQNNRILAYQGLMRIRARHCRLGIIALAEVANRNVEQFTSSDLGFCIGPRLNAAGRLDNMSIGVELLLANEMSKARELALDLDQLNQTRKEIEAGMKLEAIKICQNLTALFKELPYGITLYQPDWHQGVLGIV | not soluble
MGELIEGVWHPNWYDTASNGGRFVRSRARFRNWITADGSPGPSGEGGFPAEAGRYHLYVAHACPWAHRTMIFRALKDLAPLIDVSVVHPEMLEDGWTFDRSFPGATGDRLYGLAFLREIYLKADPGISARVTVPVLWDRKRETIVSNESAEIIRMFNAAFDHLTGNRVDFLPEGDLAEIDRLNDRIYGTVNNGVYRAGFATTQEAYDEAAAPLFETLDWLEERLATRRYLVGDRLTEADWRLFTTLVRFDKVYHTHFKCNRRQIVQYPNLWGWLRELWQVPGVAETVHFDHIVRHYYFSHDTINPHRIVPLTPDPDFAAPHGRDQLFQASRLR | not soluble
MGSDKIHHHHHHMSRHQNIPALSDVSSTNFSNIRLIATDMDGTLTRRGKFTTPLLQALEDLAAVDIKVLIVTGRSAGWVSGLSSLMPVAGAIAENGGLYFPPGNHKPVVLTPVSDLAKHRQHLATTFENLQTKFPQIQESADNRFRVTDWTFDVADLNQDELQTLDSLCQQMGWGFTYSNVQCHIKPQGQDKAVGLLQVLREYLPQYSPEQIVTVGDSPNDESLFERRYFPVSVGVANVLEYMNQLKYHPAYITNAAEGEGFCELSSYILKSLHIPS | not soluble
MSLSTEPLASRMRPKNIDEIISQQHLVGPKGIIRRMVDTKRLSSMIFYGPPGIGKTSIAKAISGSTQFKFRQLNAVTNTKKDMQLIVEEAKMSGQVILLLDEIHRLDKAKQDFLLPHLENGKIVLIGATTSNPYHAINPAIRSRAQIFELYPLDQDDIRLALDRAINDKERGLSTYHPIVDEDAIEYFSTQSQGDVRSALNALELAVLSAHIGEENERHITLDDAKDCLQKGAFVSDKDGDMHYDVMSAFQKSIRGSDVNAALHYLARLIEAGDLPTIVRRLLVISYEDVGLASPNAGQRTLAAIQSAERLGFPEARIPLSQAVIELCLSPKSNSGITAIDKALGDIRNGHIGQIPDYLKDGHYSGAKKLGRAIGYKYPHNYENGHVVQQYLPEKLKNRVYYEPKTTSKSEQQFKTIYDNLRNKEGHHHHHH | not soluble
